Source: publication PMC4178959 (The Journal of Cell Biology, 2014)
Where “and” joins values, the source holds several entries; their conditions need not be identical. Equal values may be shown once.

B1: His6-BakΔTM (recombinant His-tagged Bak lacking the transmembrane domain, aa 1–186) (domain or fragment, UniProt Q16611 1-186, looked up)
chain: MASGQGPGPPRQECGEPALPSASEEQVAQDTEEVFRSYVFYRHQQEQEAEGVAAPADPEMVTLPLQPSSTMGQVGRQLAIIGDDINRRYDSEFQTMLQHLQPTAENAYEYFTKIATSLFESGINWGRVVALLGFGYRLALHVYQHGLTGFLGQVTRFVVDFMLHHCIARWIAQRGGWVAALNLGNG
B2: GST–procaspase 8 (full-length procaspase 8 fused to GST) (natural protein, UniProt Q14790 1-479, looked up)
chain: MDFSRNLYDIGEQLDSEDLASLKFLSLDYIPQRKQEPIKDALMLFQRLQEKRMLEESNLSFLKELLFRINRLDLLITYLNTRKEEMERELQTPGRAQISAYRVMLYQISEEVSRSELRSFKFLLQEEISKCKLDDDMNLLDIFIEMEKRVILGEGKLDILKRVCAQINKSLLKIINDYEEFSKERSSSLEGSPDEFSNGEELCGVMTISDSPREQDSESQTLDKVYQMKSKPRGYCLIINNHNFAKAREKVPKLHSIRDRNGTHLDAGALTTTFEELHFEIKPHDDCTVEQIYEILKIYQLMDHSNMDCFICCILSHGDKGIIYGTDGQEAPIYELTSQFTGLKCPSLAGKPKVFFIQACQGDNYQKGIPVETDSEEQPYLEMDLSSPQTRYIPDEADFLLGMATVNNCVSYRNPAEGTWYIQSLCQSLRERCPRGDDILTILTEVNYEVSNKDDKKNMGKQMPQPTFTLRKKLVFPSD

Legend:
[1] = biological target: GST-Casp8p41 (UniProt Q14790 1-355); assay: SPR
[2] = biological target: GST-Casp8p41 V150A/L157A (UniProt Q14790 1-355, V150A | L157A); assay: SPR
[3] = biological target: GST-Casp8p41 V150E/L157K (UniProt Q14790 1-355, V150E | L157K); assay: SPR
[4] = biological target: the molecule itself; assay: cross-linking
[5] = biological target: B1; assay: SPR

**Q.** Which results are given for B1?
**A.** Kd [1]: 16 nM and 19 nM; Kd [2]: 22 nM; Kd [3]: 400 nM; stoichiometry N [4]: 2

**Q.** With B2 as the binder, how does the “fold less tight binding than GST-Casp8p41” value [5] read?
**A.** 100 fold

**Q.** Does RPEIWIAQELRRIGDEFNAYYARRVF [Bim BH3 peptide] bind [5]?
**A.** binds
